Results on nine substances are retold here after PMC10700433.

Sequence of human FcRn (P55899 24-365): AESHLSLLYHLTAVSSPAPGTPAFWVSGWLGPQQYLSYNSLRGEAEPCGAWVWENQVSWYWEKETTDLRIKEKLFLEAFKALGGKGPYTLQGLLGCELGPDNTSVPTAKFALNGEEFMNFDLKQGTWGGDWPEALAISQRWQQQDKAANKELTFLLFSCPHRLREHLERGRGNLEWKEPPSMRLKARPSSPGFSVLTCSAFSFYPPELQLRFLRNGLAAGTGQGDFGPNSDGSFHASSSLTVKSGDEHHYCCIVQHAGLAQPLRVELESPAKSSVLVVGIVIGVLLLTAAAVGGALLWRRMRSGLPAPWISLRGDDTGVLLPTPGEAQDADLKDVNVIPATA
Sequence of mouse FcγRI (P26151 25-404): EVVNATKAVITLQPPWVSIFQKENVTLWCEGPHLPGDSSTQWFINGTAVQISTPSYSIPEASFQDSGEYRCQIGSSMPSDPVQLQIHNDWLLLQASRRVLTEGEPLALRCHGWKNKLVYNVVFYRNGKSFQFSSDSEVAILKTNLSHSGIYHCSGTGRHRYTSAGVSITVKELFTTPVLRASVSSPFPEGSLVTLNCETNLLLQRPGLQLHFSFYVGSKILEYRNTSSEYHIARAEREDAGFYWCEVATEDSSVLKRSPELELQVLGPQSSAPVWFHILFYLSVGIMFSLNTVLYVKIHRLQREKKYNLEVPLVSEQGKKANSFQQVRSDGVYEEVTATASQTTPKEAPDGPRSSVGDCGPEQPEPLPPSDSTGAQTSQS
Sequence of mouse FcγRIV (A0A0B4J1G0 21-249): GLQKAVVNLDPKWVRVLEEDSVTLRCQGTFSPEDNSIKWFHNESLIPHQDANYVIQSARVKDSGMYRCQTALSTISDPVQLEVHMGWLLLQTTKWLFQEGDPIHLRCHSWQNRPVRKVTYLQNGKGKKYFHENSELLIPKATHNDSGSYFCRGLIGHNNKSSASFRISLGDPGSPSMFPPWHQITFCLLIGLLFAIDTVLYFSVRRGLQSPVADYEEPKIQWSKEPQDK
Sequence of mouse FcRn (Q61559 22-365): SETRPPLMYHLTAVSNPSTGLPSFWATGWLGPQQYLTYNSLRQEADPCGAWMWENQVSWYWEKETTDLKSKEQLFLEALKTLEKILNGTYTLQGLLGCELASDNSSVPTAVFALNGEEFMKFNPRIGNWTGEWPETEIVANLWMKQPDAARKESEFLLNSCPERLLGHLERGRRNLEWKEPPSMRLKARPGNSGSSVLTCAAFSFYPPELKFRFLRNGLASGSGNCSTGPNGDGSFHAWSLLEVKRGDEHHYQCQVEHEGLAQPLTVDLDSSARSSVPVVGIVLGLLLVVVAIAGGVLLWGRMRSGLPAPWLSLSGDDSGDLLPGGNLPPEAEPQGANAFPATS

The first assay has as its target IgG4 control antibody. Description: BLI; Octet RED96; antibodies captured on FABG2 biosensor tips, recombinant Fcγ receptors in solution at suitable concentration ranges; association and dissociation at physiological pH.
On to “human FcγRIIb (from UniProt P31994 43-310) (receptor)”, for which the Kd was determined as 600 nM.
On the same count and under the same terms, next, “mouse FcγRI (from UniProt P26151 25-404) (receptor)”: 200 nM; “mouse FcγRIII (from UniProt P08508 31-261) (receptor)”: 100 nM.
Turning to “human FcγRIIa (from UniProt P12318 34-317) (receptor)”, the Kd is 500 nM.
Still for that read-out and setting: next, “human FcγRIII 176V (from UniProt P08637 17-254) (receptor)”: 600000 nM.
For the substance “mouse FcγRIIb (from UniProt P08101 30-330) (receptor)”, the Kd was 700 nM.
In the case of “mouse FcγRIV (from UniProt A0A0B4J1G0 21-249) (receptor)”, the equilibrium dissociation constant (Kd) was 2000 nM.

Another assay concerns the target IgG4 control antibody. The assay can be described thus: BLI; Octet RED96; antibodies captured on FABG2 biosensor tips, recombinant FcRn in solution; association studied at physiological pH, dissociation at pH6.
With “mouse FcRn (from UniProt Q61559 22-365) (receptor)”, the Kd was 200 nM.
As to “human FcRn (from UniProt P55899 24-365) (receptor)”, the Kd came out at 600 nM.
